Measured values taken from patent US20230036655A1 (OTSUKA PHARMACEUTICAL, published 2023).
Substitutions are numbered along the chain they refer to. Numbers in names are those of the source.

Tests used:
[1] = biological target: T1, human GDF15 (hGDF15), mature, wild-type (human, UniProt Q99988 197-308); assay: ELISA, hGDF15 immobilised; binding at 5 ng/mL antibody, HuMAB2 = 100
T1 construct: Bought recombinant protein: R&D Systems 957-GD-025/CF in most assays, 9279-GD in the crystal and the GDF15/GFRAL/RET assay; It was biotinylated in the GFRAL assay; also called hGDF15 (WT); rhGDF15
T1 sequence: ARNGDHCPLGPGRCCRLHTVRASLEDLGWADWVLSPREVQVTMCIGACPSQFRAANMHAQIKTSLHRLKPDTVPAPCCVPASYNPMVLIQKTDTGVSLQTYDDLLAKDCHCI
Experimental: A 100 μL hGDF15 solution (0.4 μg/ml) was added to a 96-well plate and left at 4° C. until the next morning to prepare a plate for ELISA. To the plate, 1% BSA was added for blocking for 1 hour. A dilution series of the culture supernatant containing the variant antibody was prepared from 30-fold dilution (common ratio of dilution factor was 3), and 100 μL of each solution was added to the ELISA plate and left for 2 hours. As a secondary antibody, an HRP conjugated anti-human IgG antibody (Gene Tex, GTX26759) (20000-fold dilution) was added and left for 1 hour. TMB (Sigma, T-0440) was used for color development reaction, and 2N sulfuric acid was used as a reaction terminator. The absorbance was measured at 450 nm.

[2] = biological target: T1, human GDF15 (hGDF15), mature, wild-type; assay: ELISA, hGDF15 immobilised
mutant hGDF15 3A = biological target: T2, mutant hGDF15 3A (human, UniProt Q99988 197-308); assay: sandwich ELISA: antibody immobilised, WT or mutant hGDF15, goat polyclonal detection; N=3, mean ± SD
T2 construct: Expressed in ExpiCHO-S cells and used as culture supernatant
T2 chain: T1 sequence with G12A, R13A, R16A

mutant hGDF15 6A = biological target: T3, mutant hGDF15 6A (human, UniProt Q99988 197-308); assay: as above
T3 construct: Expressed in ExpiCHO-S cells and used as culture supernatant
T3 chain: T1 sequence with G10A, P11A, G12A, R13A, R16A, L17A

mutant hGDF15 8A = biological target: T4, mutant hGDF15 8A (human, UniProt Q99988 197-308); assay: as above
T4 construct: Expressed in ExpiCHO-S cells and used as culture supernatant
T4 chain: T1 sequence with P8A, L9A, G10A, P11A, G12A, R13A, R16A, L17A

mutant hGDF15 H6A = biological target: T5, mutant hGDF15 H6A (human, UniProt Q99988 197-308); assay: as above
T5 construct: Expressed in ExpiCHO-S cells and used as culture supernatant in the ELISA
T5 chain: T1 sequence with H6A

mutant hGDF15 T72A = biological target: T6, mutant hGDF15 T72A (human, UniProt Q99988 197-308); assay: as above
T6 construct: Expressed in ExpiCHO-S cells and used as culture supernatant in the ELISA
T6 chain: T1 sequence with T72A

mutant hGDF15 R13A = biological target: T7, mutant hGDF15 R13A (human, UniProt Q99988 197-308); assay: as above
T7 construct: Expressed in ExpiCHO-S cells and used as culture supernatant in the ELISA
T7 chain: T1 sequence with R13A

mutant hGDF15 R13A, R16A = biological target: T8, mutant hGDF15 R13A, R16A (human, UniProt Q99988 197-308); assay: as above
T8 construct: Expressed in ExpiCHO-S cells and used as culture supernatant in the ELISA
T8 chain: T1 sequence with R13A, R16A

mutant hGDF15 R16A = biological target: T9, mutant hGDF15 R16A (human, UniProt Q99988 197-308); assay: as above
T9 construct: Expressed in ExpiCHO-S cells and used as culture supernatant in the ELISA
T9 chain: T1 sequence with R16A

mutant hGDF15 4A = biological target: T10, mutant hGDF15 4A (human, UniProt Q99988 197-308); assay: as above
T10 construct: Expressed in ExpiCHO-S cells and used as culture supernatant
T10 chain: T1 sequence with G12A, R13A, R16A, L17A

[3] = biological target: T1, human GDF15 (hGDF15), mature, wild-type; assay: competition ELISA: GFRAL immobilised, biotinylated GDF15 plus serially diluted antibody; inhibition of GDF15-GFRAL complex formation
Description: First, the effect on GDF15 and GFRAL complex formation was examined (FIG. 12). GFRAL (R&D systems, 9697-GR) was immobilized on a plate, and GDF15 (R&D systems, 957-GD/CF) biotinylated with EZ-Link Micro NHS-PEG4-Bitinylation Kit (Thermo Fisher Scientific, 21955) and a serially diluted solution of an anti-GDF15 monoclonal antibody (Table 26) were reacted with the plate. Human IgG1, kappa-Isotype Control (Abcam) was used as a negative control antibody. GDF15 bound to GFRAL was detected using Pierce High Sensitivity Streptavidin-HRP (Thermo Fisher Scientific, 21130). TMB 1-Component Microwell Peroxidase Substrate, SureBlue (SeraCare Life Sciences) was used for color development, and the reaction was stopped by adding a stop solution (Wako). Absorbance was measured at 450 nm (OD450) using Emax (Molecular Devices). The % of control value was calculated according to Equation-1 from the OD450 value when each antibody was added, with the OD450 value when no antibody was added as a control. The IC50 value was obtained by calculating the inhibition rate from the % of control value thus obtained according to Equation-2 and using an Excel macro for IC50 calculation.

[4] = biological target: T1, human GDF15 (hGDF15), mature, wild-type; assay: competition (sandwich) ELISA: clone immobilised, hGDF15 captured; competitor: biotinylated HuMAB2
Experimental: HuMAB2 and the anti-GDF15 monoclonal antibodies shown in Table 5 (2 μg/mL) were added to 96-well plates at 100 μL/well to be immobilized on the plates, and reacted with 100 μL/well of hGDF15 (R&D Systems, 957-GD-025/CF) serially diluted from a concentration of 1 ng/ml. HuMAB2 biotinylated using EZ-Link Micro NHS-PEG4-Bitinylation Kit (Thermo Fisher Scientific, 21955) was used as the detection antibody (1 μg/mL as 100 μL/well). Whether or not sandwich ELISA was established was determined using Streptavidin-HRP conjugate in Human GDF15 ELISA Kit (R&D Systems, DY957). The detection antibody in Human GDF15 ELISA Kit (R&D Systems, DY957) (Table 5), which can establish sandwich ELISA with any monoclonal antibody, was used as a positive control antibody (PC) for sandwich ELISA.
Then, other antibodies obtained this time were tested to see whether each of these antibodies competes with HuMAB2 by the same method as described above.

B1: H3-L48K (antibody, human IgG1, kappa, V domains shown)
VH: QVQLQESGPGLVKPSETLSLTCTVSGFSINSDCYWIWIRQPPGKGLEYIGYTFYSGITYYNPSLASRTTISRDTSKNQFSLKLSSVTAADTAVYYCARDCDYAMDYWGQGTLVTVSS
VL: DIQMTQSPSSLSASVGDRVTITCRASQKISNYLNWYQQKPGKAVKLLIHYTSTLHSGVPSRFSGSGSGTDYTLTISSLQPEDFATYFCQQGNTLPWTFGQGTKLEIKR
notes: In the label, L means the L chain; Tested as culture supernatant; also called HuMAB2 variant L48K
fold change in binding strength compared to HuMAB2 [1]: ~1.5 fold

B2: H3-L72F (antibody, human IgG1, kappa, V domains shown)
VH: B1 VH
VL: B1 VL with K28D, S52F
notes: In the label, L means the L chain; also called HuMAB2 variant L72F
binding result [2]: binds

B3: H3-L74H (antibody, human IgG1, kappa, V domains shown)
VH: B1 VH
VL: B1 VL with K28D, L54H
notes: In the label, L means the L chain; also called HuMAB2 variant L74H
binding result [2]: binds

B4: H3-L112D (antibody, human IgG1, kappa, V domains shown)
VH: B1 VH
VL: B1 VL with K28D, N92D
notes: In the label, L means the L chain; Tested as culture supernatant; also called HuMAB2 variant L112D
fold change in binding strength compared to HuMAB2 [1]: ~1.5 fold

B5: H48S-L7 (antibody, human IgG1, kappa, V domains shown)
VH: B1 VH with N30S
VL: B1 VL with K28D
notes: Tested as culture supernatant; also called HuMAB2 variant H48S
fold change in binding strength compared to HuMAB2 [1]: ~1.5 fold

B6: H49D-L7 (antibody, human IgG1, kappa, V domains shown)
VH: B1 VH with S31D
VL: B1 VL with K28D
notes: In the label, H means the H chain; also called HuMAB2 variant H49D
binding result [2]: binds

B7: H49R-L7 (antibody, human IgG1, kappa, V domains shown)
VH: B1 VH with S31R
VL: B1 VL with K28D
notes: In the label, H means the H chain; also called HuMAB2 variant H49R
binding result [2]: binds

B8: H71Y-L7 (antibody, human IgG1, kappa, V domains shown)
VH: B1 VH with F53Y
VL: B1 VL with K28D
notes: In the label, H means the H chain; also called HuMAB2 variant H71Y
binding result [2]: binds

B9: H83R-L7 (antibody, human IgG1, kappa, V domains shown)
VH: B1 VH with A65R
VL: B1 VL with K28D
notes: In the label, H means the H chain; Tested as culture supernatant; also called HuMAB2 variant H83R
fold change in binding strength compared to HuMAB2 [1]: ~1.5 fold

B10: H120F-L7 (antibody, human IgG1, kappa, V domains shown)
VH: B1 VH with Y102F
VL: B1 VL with K28D
notes: In the label, H means the H chain; Tested as culture supernatant; also called HuMAB2 variant H120F
fold change in binding strength compared to HuMAB2 [1]: ~1.5 fold

B11: Hu01G06-127 (antibody, V domains shown)
VH: QVQLVQSGAEVKKPGASVKVSCKASGYTFTDYNMDWVRQAPGQSLEWMGQINPNNGLIFFNQKFQGRVTLTTDTSTSTAYMELRSLRSDDTAVYYCAREAITTVGAMDYWGQGTLVTVSS
VL: DIQMTQSPSSLSASVGDRVTITCRTSENLHNYLAWYQQKPGKSPKLLIYDAKTLADGVPSRFSGSGSGTDYTLTISSLQPEDFATYYCQHFWSDPYTFGQGTKLEIKR
relative binding (amount bound to 500 pg/mL hGDF15 = 100) (mutant hGDF15 3A): 96.2 relative value (WT hGDF15 = 100)
relative binding (amount bound to 500 pg/mL hGDF15 = 100) (mutant hGDF15 6A): 61.6 relative value (WT hGDF15 = 100)
relative binding (amount bound to 500 pg/mL hGDF15 = 100) (mutant hGDF15 8A): 57.1 relative value (WT hGDF15 = 100)
relative binding (amount bound to 500 pg/mL hGDF15 = 100) (mutant hGDF15 H6A): 90.5 relative value (WT hGDF15 = 100)
relative binding (amount bound to 500 pg/mL hGDF15 = 100) (mutant hGDF15 T72A): 108 relative value (WT hGDF15 = 100)
relative binding (amount bound to 500 pg/mL hGDF15 = 100) (mutant hGDF15 R13A): 91.4 relative value (WT hGDF15 = 100)
relative binding (amount bound to 500 pg/mL hGDF15 = 100) (mutant hGDF15 R13A, R16A): 87.6 relative value (WT hGDF15 = 100)
relative binding (amount bound to 500 pg/mL hGDF15 = 100) (mutant hGDF15 R16A): 102 relative value (WT hGDF15 = 100)
relative binding (amount bound to 500 pg/mL hGDF15 = 100) (mutant hGDF15 4A): 83.5 relative value (WT hGDF15 = 100)
IC50 [3]: 50 pM

B12: MAB1 (antibody, V domains shown)
VH: EVQLQQSGPELEKPGASVKISCKASGYSFTGYNMNWVKQSNGKSLEWIGNIDPYYGGTSYNQKFKGKATLTVDKSSSTAYMQLKSLTSEDSAVYYCARPGRYDGAWFAYWGQGTLVTVSA
VL: QIVLSQSPAILSASPGEKVTMTCRASSNVNYMHWYQQKPGSSPKPWIYATSNLASGVPARFSGSGSGTSYSLTISRVEAEDAATYYCQQWSDNPLTFGAGTKLELK
notes: Mouse monoclonal antibody from hybridoma; also called clone MAB1
Inhibition % [4]: 82%

B13: MAB13 (antibody, V domains shown)
VH: EIQLQQTGPELVKPGASVKISCKASGYSFTDYIMLWVKQRHGKSLEWIGNIHPYYGTTSYNLKFKGKATLTVDKSSSTAYMQLNSLTSEDSAVYYCARGIGGSPFAYWGQGTLVTVSA
VL: DVLMTQTPLSLPVSLGDQASISCRSSQSIVHSNGNTYLEWYLQKPGQSPKLLIYKVSNRFSGVPDRFTGTGSGTDFTLKISRVEAEDLGVYYCFQGSHVPYTFGGGTKLEIK
notes: Mouse monoclonal antibody from hybridoma; also called clone MAB13
Inhibition % [4]: 79%
